Source: patent US20240025977A1 (UNIVERSITY HEALTH NETWORK, published 2024)

How the values were obtained:
[1] = molecular target: FITC-labeled AL09 under amyloid-forming conditions; assay: cell-based or functional assay
[2] = molecular target: T1, IAPP (islet amyloid polypeptide) amyloid in pancreatic tissue (human, UniProt P10997 34-70); assay: immunohistochemistry, pancreatic tissue
T1 construct: Tissue section; also called IAPP pancreatic tissue
T1 chain (looked up): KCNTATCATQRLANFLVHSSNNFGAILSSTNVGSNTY

[3] = molecular target: ATTR amyloid in human cardiac tissue (human, UniProt P02766 21-147); assay: immunohistochemistry, ATTR cardiac tissue
[4] = molecular target: T2, misfolded/unfolded AL12 kappa light chain; assay: bio-layer interferometry, Octet fit, table inset
T2 construct: also called misfolded AL12
Experimental: (§1) FIGS. 13A-13D are bio-layer interferometry sensorgrams of binding interactions between LX-96 and misfolded (FIG. 13A, 13C) or native kappa light chain variants (FIG. 13B, 13D). Binding of LX-96 with its targets at a range of target concentrations was measured by changes in wavelength (nm) over 2000 seconds (300s association, 1700s dissociation). Association and dissociation curves were fit using Octet Systems Software to determine KD, KD Error, X2 and R2 values (table insets; FIGS. 13A-13D).
(§2) We quantified the monovalent binding affinity of LX-96 using bio-layer interferometry (BLI). LX-96 was loaded onto Anti-Mouse IgG Fc Capture (AMC) biosensors and dipped into a solution of varying concentrations of misfolded AL09 (0-200 nM) or native AL09 (0-3000 nM). From the sensorgram, we observed rapid association of misfolded AL09 with LX-96, followed by a slow dissociation step (FIG. 13A). […] This confirms that LX-96 is capable of binding specifically to the misfolded form of different kappa light chain variants at similar, single-digit nanomolar affinities.

[5] = molecular target: T3, misfolded/unfolded AL09 kappa light chain; assay: BLI (Octet), LX-96 on Anti-Mouse IgG Fc Capture biosensors, misfolded AL09 0-200 nM in solution
T3 construct: Same polypeptide as native AL09, in a chemically unfolded, reduced and alkylated state; also called misfolded AL09; mis/unfolded AL09
Experimental: as §1, §2

[6] = molecular target: T2, misfolded/unfolded AL12 kappa light …; assay: BLI (Octet), LX-96 on Anti-Mouse IgG Fc Capture biosensors, misfolded AL12 in solution
Experimental: as §1, §2

inhibition of AL09 aggregation (FITC fluorescence of the soluble fraction at endpoint), IC50 [1]: < 1000 nM
binding result [2]: no binding
binding result [3]: no binding
Kd [4]: 7.47 nM
Kd [5]: 1.12 nM
Kd [6]: 7.5 nM
B1: LX-96 anti-kappa monoclonal antibody (antibody, V domains shown)
VH: QVQLQQPGAELARPGASVKLSCKASGYTFTSFWIQWIKQRPGQGLEWIGSIYPGDGDTRYIQKFRGKATLTADESSSTAYMQLSSLASEDSAIYYCAIVTTAPDYWGQGTTLTVSS
VL: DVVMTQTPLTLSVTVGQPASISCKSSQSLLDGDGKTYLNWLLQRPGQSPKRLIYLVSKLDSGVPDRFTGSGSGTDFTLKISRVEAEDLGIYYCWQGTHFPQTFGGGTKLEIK
notes: Fluorescently labeled in the in vivo localisation assay; also called anti-κ monoclonal antibody
